Values of other authors as cited in paper PMC9958082.

Biological target: E-cadherin (Homo sapiens) (UniProt P12830)
Settings: cited from earlier work

Chain of UniProt P12830 (P12830 155-709): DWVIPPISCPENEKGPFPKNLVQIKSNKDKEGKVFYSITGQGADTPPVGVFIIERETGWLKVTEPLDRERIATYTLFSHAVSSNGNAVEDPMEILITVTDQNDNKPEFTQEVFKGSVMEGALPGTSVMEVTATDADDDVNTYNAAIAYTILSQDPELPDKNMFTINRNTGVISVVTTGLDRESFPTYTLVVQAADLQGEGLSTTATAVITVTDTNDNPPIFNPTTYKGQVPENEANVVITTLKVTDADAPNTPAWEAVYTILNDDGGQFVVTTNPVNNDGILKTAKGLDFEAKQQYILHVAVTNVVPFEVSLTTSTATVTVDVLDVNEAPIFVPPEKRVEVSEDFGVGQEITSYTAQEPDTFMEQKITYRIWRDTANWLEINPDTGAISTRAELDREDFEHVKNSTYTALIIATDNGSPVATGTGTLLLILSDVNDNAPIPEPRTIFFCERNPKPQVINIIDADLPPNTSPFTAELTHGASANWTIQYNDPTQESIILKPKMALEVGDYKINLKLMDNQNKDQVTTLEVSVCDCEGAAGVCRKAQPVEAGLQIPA

## HA (hemagglutinin complex) (from UniProt P46085)
  Kd: 2.3 µM
